Like-named read-outs stand apart in the source and are kept apart here.
T1: TaHRP1:GST (UniProt A0A3B6H0D8 1-141)
T1 sequence: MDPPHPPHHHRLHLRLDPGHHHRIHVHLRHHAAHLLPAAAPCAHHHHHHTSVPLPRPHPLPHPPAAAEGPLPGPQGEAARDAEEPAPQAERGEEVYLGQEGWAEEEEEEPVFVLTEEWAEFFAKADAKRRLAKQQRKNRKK


Assays:
TaHRP1:GST [1] = molecular target: T1, TaHRP1:GST; experiment: EMSA
TaHRP1:GST [2] = molecular target: T1, TaHRP1:GST; experiment: EMSA; remark: listed apart in the source

Row | Binder | binding result (TaHRP1:GST [1]) | binding result (TaHRP1:GST [2])
1 | Probe-DNA (HBS promoter probe) (dsDNA) DNA 1: AAAACCAAAATAACTAGTTAAAGAAGAATGAAAGAGTTAAATTCCATTTATTTTT DNA 2: AAAAATAAATGGAATTTAACTCTTTCATTCTTCTTTAACTAGTTATTTTGGTTTT | binds | 
2 | mProbe-DNA (HBS mutated) (dsDNA) DNA 1: AAAACCAAAATAACTAGTTAGGCGGCGGTGAAAGAGTTAAATTCCATTTATTTTT DNA 2: AAAAATAAATGGAATTTAACTCTTTCACCGCCGCCTAACTAGTTATTTTGGTTTT |  | no binding

Reference: article PMC11319775
